Results: the Human Domainome abundance scans (Beltran et al. 2025)
± gives the uncertainty stated by the source.

assay: abundance fitness (aPCA) (normalised: wild type 0, dead -1); higher = more abundant; growth selection in yeast, the domain comes from the species named; conditions: Homo sapiens

Substance	abundance fitness
NEDD4-like E3 ubiquitin-protein ligase WWP2 P444D, O00308	0.148 ± 0.061
NEDD4-like E3 ubiquitin-protein ligase WWP2 K453A, O00308	0.037 ± 0.046
NEDD4-like E3 ubiquitin-protein ligase WWP2 R460L, O00308	-0.088 ± 0.036
NEDD4-like E3 ubiquitin-protein ligase WWP2 M452K, O00308	-0.36 ± 0.11
Heterogeneous nuclear ribonucleoprotein U-like protein 2 V27A, Q1KMD3	0.131 ± 0.053
NEDD4-like E3 ubiquitin-protein ligase WWP2 P475I, O00308	-0.523 ± 0.11
NEDD4-like E3 ubiquitin-protein ligase WWP2 G458Y, O00308	-0.262 ± 0.064
NEDD4-like E3 ubiquitin-protein ligase WWP2 N466Q, O00308	-0.06 ± 0.068
NEDD4-like E3 ubiquitin-protein ligase WWP2 G486S, O00308	-0.041 ± 0.049
NEDD4-like E3 ubiquitin-protein ligase WWP2 W450R, O00308	-0.735 ± 0.047
NEDD4-like E3 ubiquitin-protein ligase WWP2 S481A, O00308	0 ± 0.061
Heterogeneous nuclear ribonucleoprotein U-like protein 2 Q31D, Q1KMD3	-0.194 ± 0.11
NEDD4-like E3 ubiquitin-protein ligase WWP2 P488T, O00308	-0.044 ± 0.048
NEDD4-like E3 ubiquitin-protein ligase WWP2 T471M, O00308	-0.798 ± 0.094
NEDD4-like E3 ubiquitin-protein ligase WWP2 Q442P, O00308	-0.067 ± 0.039
NEDD4-like E3 ubiquitin-protein ligase WWP2 R468D, O00308	-0.479 ± 0.06
NEDD4-like E3 ubiquitin-protein ligase WWP2 K473S, O00308	-0.128 ± 0.055
NEDD4-like E3 ubiquitin-protein ligase WWP2 K484Q, O00308	-0.025 ± 0.068
NEDD4-like E3 ubiquitin-protein ligase WWP2 K453H, O00308	-0.137 ± 0.047
NEDD4-like E3 ubiquitin-protein ligase WWP2 E443T, O00308	-0.248 ± 0.085
NEDD4-like E3 ubiquitin-protein ligase WWP2 T469D, O00308	-0.257 ± 0.055
NEDD4-like E3 ubiquitin-protein ligase WWP2 S456H, O00308	0.346 ± 0.096

Substance	abundance fitness
NEDD4-like E3 ubiquitin-protein ligase WWP2 V463R, O00308	-0.352 ± 0.038
NEDD4-like E3 ubiquitin-protein ligase WWP2 E457R, O00308	-0.251 ± 0.061
NEDD4-like E3 ubiquitin-protein ligase WWP2 Y461P, O00308	-0.824 ± 0.045
NEDD4-like E3 ubiquitin-protein ligase WWP2 G489H, O00308	-0.155 ± 0.078
NEDD4-like E3 ubiquitin-protein ligase WWP2 A490E, O00308	0.024 ± 0.062
NEDD4-like E3 ubiquitin-protein ligase WWP2 S487N, O00308	-0.034 ± 0.04
NEDD4-like E3 ubiquitin-protein ligase WWP2 Q442H, O00308	-0.108 ± 0.086
NEDD4-like E3 ubiquitin-protein ligase WWP2 A445H, O00308	0.069 ± 0.081
Transcription factor SOX-11 E78N, P35716	-0.727 ± 0.09
NEDD4-like E3 ubiquitin-protein ligase WWP2 P448T, O00308	0.001 ± 0.05
NEDD4-like E3 ubiquitin-protein ligase WWP2 S487K, O00308	0.016 ± 0.038
NEDD4-like E3 ubiquitin-protein ligase WWP2 Y491M, O00308	0.018 ± 0.061
NEDD4-like E3 ubiquitin-protein ligase WWP2 Y454L, O00308	-0.035 ± 0.031
NEDD4-like E3 ubiquitin-protein ligase WWP2 M440T, O00308	-0.117 ± 0.033
NEDD4-like E3 ubiquitin-protein ligase WWP2 F479T, O00308	0.025 ± 0.061
NEDD4-like E3 ubiquitin-protein ligase WWP2 P447C, O00308	-0.458 ± 0.07
NEDD4-like E3 ubiquitin-protein ligase WWP2 S481D, O00308	0.01 ± 0.037
NEDD4-like E3 ubiquitin-protein ligase WWP2 P447V, O00308	-0.633 ± 0.04
NEDD4-like E3 ubiquitin-protein ligase WWP2 S481H, O00308	-0.17 ± 0.08
NEDD4-like E3 ubiquitin-protein ligase WWP2 H465L, O00308	-0.315 ± 0.045
NEDD4-like E3 ubiquitin-protein ligase WWP2 G458R, O00308	-0.139 ± 0.046
NEDD4-like E3 ubiquitin-protein ligase WWP2 P447H, O00308	-0.381 ± 0.075

Substance	abundance fitness
NEDD4-like E3 ubiquitin-protein ligase WWP2 P475N, O00308	-0.941 ± 0.13
NEDD4-like E3 ubiquitin-protein ligase WWP2 I441W, O00308	-0.297 ± 0.067
NEDD4-like E3 ubiquitin-protein ligase WWP2 T470Y, O00308	-0.772 ± 0.12
NEDD4-like E3 ubiquitin-protein ligase WWP2 R493L, O00308	-0.088 ± 0.1
NEDD4-like E3 ubiquitin-protein ligase WWP2 G458F, O00308	-0.539 ± 0.1
NEDD4-like E3 ubiquitin-protein ligase WWP2 P448V, O00308	0.023 ± 0.055
NEDD4-like E3 ubiquitin-protein ligase WWP2 K484S, O00308	-0.007 ± 0.037
NEDD4-like E3 ubiquitin-protein ligase WWP2 P448E, O00308	0.045 ± 0.062
NEDD4-like E3 ubiquitin-protein ligase WWP2 W450C, O00308	-0.446 ± 0.051
NEDD4-like E3 ubiquitin-protein ligase WWP2 G458L, O00308	-0.283 ± 0.041
NEDD4-like E3 ubiquitin-protein ligase WWP2 P477M, O00308	-0.011 ± 0.05
NEDD4-like E3 ubiquitin-protein ligase WWP2 D474M, O00308	-0.224 ± 0.063
NEDD4-like E3 ubiquitin-protein ligase WWP2 P477I, O00308	0.13 ± 0.075
NEDD4-like E3 ubiquitin-protein ligase WWP2 E451T, O00308	-0.229 ± 0.045
NEDD4-like E3 ubiquitin-protein ligase WWP2 D492K, O00308	0.029 ± 0.074
NEDD4-like E3 ubiquitin-protein ligase WWP2 R468T, O00308	-0.336 ± 0.069
NEDD4-like E3 ubiquitin-protein ligase WWP2 G482L, O00308	-0.086 ± 0.044
NEDD4-like E3 ubiquitin-protein ligase WWP2 G478P, O00308	-0.005 ± 0.052
NEDD4-like E3 ubiquitin-protein ligase WWP2 L446P, O00308	-0.394 ± 0.083
NEDD4-like E3 ubiquitin-protein ligase WWP2 E451H, O00308	-0.54 ± 0.089
NEDD4-like E3 ubiquitin-protein ligase WWP2 T471P, O00308	-1.15 ± 0.13
NEDD4-like E3 ubiquitin-protein ligase WWP2 G449D, O00308	-0.127 ± 0.044

Substance	abundance fitness
NEDD4-like E3 ubiquitin-protein ligase WWP2 T471E, O00308	-0.975 ± 0.11
NEDD4-like E3 ubiquitin-protein ligase WWP2 E457I, O00308	-0.285 ± 0.042
NEDD4-like E3 ubiquitin-protein ligase WWP2 G449I, O00308	-1.09 ± 0.18
NEDD4-like E3 ubiquitin-protein ligase WWP2 D474P, O00308	-0.332 ± 0.085
NEDD4-like E3 ubiquitin-protein ligase WWP2 M452S, O00308	-0.069 ± 0.04
NEDD4-like E3 ubiquitin-protein ligase WWP2 Q485W, O00308	-0.149 ± 0.062
NEDD4-like E3 ubiquitin-protein ligase WWP2 K453P, O00308	-1.01 ± 0.12
NEDD4-like E3 ubiquitin-protein ligase WWP2 T471K, O00308	-0.734 ± 0.065
NEDD4-like E3 ubiquitin-protein ligase WWP2 R493S, O00308	-0.201 ± 0.079
NEDD4-like E3 ubiquitin-protein ligase WWP2 T483N, O00308	-0.247 ± 0.076
NEDD4-like E3 ubiquitin-protein ligase WWP2 E480N, O00308	-0.126 ± 0.068
NEDD4-like E3 ubiquitin-protein ligase WWP2 Y491A, O00308	-0.015 ± 0.059
NEDD4-like E3 ubiquitin-protein ligase WWP2 A445R, O00308	0.077 ± 0.039
NEDD4-like E3 ubiquitin-protein ligase WWP2 P477D, O00308	-0.009 ± 0.059
NEDD4-like E3 ubiquitin-protein ligase WWP2 E457Q, O00308	-0.022 ± 0.056
NEDD4-like E3 ubiquitin-protein ligase WWP2 Y491I, O00308	0.022 ± 0.068
NEDD4-like E3 ubiquitin-protein ligase WWP2 Y454I, O00308	-0.065 ± 0.062
NEDD4-like E3 ubiquitin-protein ligase WWP2 S456T, O00308	-0.04 ± 0.06
Heterogeneous nuclear ribonucleoprotein U-like protein 2 Q16K, Q1KMD3	0.049 ± 0.092
NEDD4-like E3 ubiquitin-protein ligase WWP2 Y461F, O00308	-0.236 ± 0.075
Transcription factor SOX-11 M74L, P35716	-0.084 ± 0.056
NEDD4-like E3 ubiquitin-protein ligase WWP2 W450Y, O00308	-0.211 ± 0.081
